B1: GNB5 (parent)
chain: DINSVRYYPSGDAFASGSDDATCR
B2: PPP2R2B (parent)
chain: RNTKRDVTLEASRENSKPRAILKP

Variants of: B1
Experiment: protein stability index of a GFP-peptide fusion (GPS, HEK-293T) (PSI 1-6); higher = more stable
Conditions: c terminus: a fixed tail appended
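Further: lentivirally expressed fusions sorted by FACS into six bins by GFP to DsRed ratio, PSI derived from sequencing read proportions per bin multiplied by bin number.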

Q: With S10C as the variant, how does the protein stability index read?
A: 3.49

Variants of: B2
Experiment: as above
Conditions: c terminus: a fixed tail appended

Q: For T8H, which protein stability index is on record?
A: 4.35

Q: For T8R, which protein stability index is on record?
A: 4.68

Q: Which protein stability index does the source give for T8F here?
A: 3.88

Q: With T8C as the variant, how does the protein stability index read?
A: 4.2

Q: Which protein stability index does the source give for T8W here?
A: 3.66

Q: Which protein stability index does the source give for T8A here?
A: 4.72

Q: Which protein stability index does the source give for T3P here?
A: 4.53

Q: With T3H as the variant, how does the protein stability index read?
A: 4.4

Q: With T3R as the variant, how does the protein stability index read?
A: 4.45

Q: With T3A as the variant, how does the protein stability index read?
A: 4.87

Q: With T3I as the variant, how does the protein stability index read?
A: 4.45

Q: For N2P, which protein stability index is on record?
A: 4.31

Q: For N2Y, which protein stability index is on record?
A: 4.37

Q: With N2S as the variant, how does the protein stability index read?
A: 4.62

Q: With N2F as the variant, how does the protein stability index read?
A: 4.51

Q: For N2K, which protein stability index is on record?
A: 4.51

Q: Which protein stability index does the source give for N2M here?
A: 4.4

Q: For N2H, which protein stability index is on record?
A: 4.66

Q: For N2C, which protein stability index is on record?
A: 4.27

Q: With N2V as the variant, how does the protein stability index read?
A: 4.1

Q: For N2L, which protein stability index is on record?
A: 3.72

Q: With P18G as the variant, how does the protein stability index read?
A: 4.86

Q: Which protein stability index does the source give for P18K here?
A: 4.73

Q: With P18M as the variant, how does the protein stability index read?
A: 4.58

Q: With P18W as the variant, how does the protein stability index read?
A: 3.87

Q: With P18A as the variant, how does the protein stability index read?
A: 4.52

Q: Which protein stability index does the source give for P18T here?
A: 4.54

Q: With S16N as the variant, how does the protein stability index read?
A: 4.48

Q: For S16H, which protein stability index is on record?
A: 4.57

Q: With S16A as the variant, how does the protein stability index read?
A: 4.51

Q: With S16E as the variant, how does the protein stability index read?
A: 4.75

Q: For S16W, which protein stability index is on record?
A: 3.37

Q: For S16I, which protein stability index is on record?
A: 4.19

Q: Which protein stability index does the source give for V7M here?
A: 4.81

Q: Which protein stability index does the source give for V7Y here?
A: 4.63

Q: Which protein stability index does the source give for V7T here?
A: 4.81

Q: For V7Q, which protein stability index is on record?
A: 4.8

Q: With V7D as the variant, how does the protein stability index read?
A: 4.86

Q: Which protein stability index does the source give for V7H here?
A: 4.67

Q: With V7C as the variant, how does the protein stability index read?
A: 3.77

Q: For V7K, which protein stability index is on record?
A: 4.6

Q: With V7W as the variant, how does the protein stability index read?
A: 4.61

Q: For R5M, which protein stability index is on record?
A: 3.86

Q: For R5E, which protein stability index is on record?
A: 5.03

Q: With R5T as the variant, how does the protein stability index read?
A: 4.94

Q: For R5Y, which protein stability index is on record?
A: 4.26

Q: For R5I, which protein stability index is on record?
A: 4.19

Q: Which protein stability index does the source give for R5G here?
A: 5.07

Q: Which protein stability index does the source give for N15S here?
A: 4.85

Q: For N15K, which protein stability index is on record?
A: 4.82

Q: For N15G, which protein stability index is on record?
A: 4.49

Q: For N15L, which protein stability index is on record?
A: 4.53

Q: For I21G, which protein stability index is on record?
A: 4.99

Q: For I21K, which protein stability index is on record?
A: 4.83

Q: For I21Y, which protein stability index is on record?
A: 4.5

Q: Which protein stability index does the source give for I21L here?
A: 4.68

Q: With I21N as the variant, how does the protein stability index read?
A: 4.68

Q: With R19M as the variant, how does the protein stability index read?
A: 4.44

Q: For R19A, which protein stability index is on record?
A: 4.2

Q: With E10C as the variant, how does the protein stability index read?
A: 3.86

Q: Which protein stability index does the source give for E10Q here?
A: 4.33

Q: With E10P as the variant, how does the protein stability index read?
A: 4.55

Q: With E10D as the variant, how does the protein stability index read?
A: 4.64

Q: For E10Y, which protein stability index is on record?
A: 4

Q: Which protein stability index does the source give for E10L here?
A: 3.6

Q: With E10I as the variant, how does the protein stability index read?
A: 4.14

Q: Which protein stability index does the source give for E10R here?
A: 4.01

Q: For E10F, which protein stability index is on record?
A: 3.49

Q: Which protein stability index does the source give for A20E here?
A: 5

Q: Which protein stability index does the source give for A20S here?
A: 4.48

Q: Which protein stability index does the source give for A20W here?
A: 3.3

Q: Which protein stability index does the source give for A20G here?
A: 4.39

Q: Which protein stability index does the source give for A20C here?
A: 4.17

Q: Which protein stability index does the source give for A20D here?
A: 4.64

Q: For A20M, which protein stability index is on record?
A: 4.65

Q: Which protein stability index does the source give for K17V here?
A: 4.66

Q: With K17N as the variant, how does the protein stability index read?
A: 4.5

Q: For K17M, which protein stability index is on record?
A: 4.69

Q: For K17S, which protein stability index is on record?
A: 4.04

Q: For K17H, which protein stability index is on record?
A: 4.47

Q: Which protein stability index does the source give for K17L here?
A: 4.56

Q: Which protein stability index does the source give for K17Q here?
A: 4.81

Q: Which protein stability index does the source give for K17P here?
A: 5.27

Q: For K17W, which protein stability index is on record?
A: 4.3

Q: Which protein stability index does the source give for S12K here?
A: 4.34

Q: Which protein stability index does the source give for S12Q here?
A: 4.42

Q: For S12E, which protein stability index is on record?
A: 4.95

Q: Which protein stability index does the source give for S12Y here?
A: 4.18

Q: With S12D as the variant, how does the protein stability index read?
A: 4.8

Q: With A11N as the variant, how does the protein stability index read?
A: 4.3

Q: With A11F as the variant, how does the protein stability index read?
A: 3.59

Q: With A11P as the variant, how does the protein stability index read?
A: 4.23

Q: Which protein stability index does the source give for A11Q here?
A: 4.28

Q: With A11W as the variant, how does the protein stability index read?
A: 3.95

Q: For A11T, which protein stability index is on record?
A: 4.44

Q: With A11V as the variant, how does the protein stability index read?
A: 4.49

Q: Which protein stability index does the source give for A11E here?
A: 5.24

Q: With L9S as the variant, how does the protein stability index read?
A: 4.89

Q: For L9T, which protein stability index is on record?
A: 4.96

Q: Which protein stability index does the source give for L9D here?
A: 5.09

Q: With L9W as the variant, how does the protein stability index read?
A: 4.34

Q: Which protein stability index does the source give for L9G here?
A: 4.88

Q: With L9V as the variant, how does the protein stability index read?
A: 4.59

Q: Which protein stability index does the source give for L9P here?
A: 4.4

Q: For L22M, which protein stability index is on record?
A: 4.33

Q: For L22H, which protein stability index is on record?
A: 4.8

Q: Which protein stability index does the source give for L22S here?
A: 4.9

Q: For L22Q, which protein stability index is on record?
A: 4.92

Q: For L22N, which protein stability index is on record?
A: 4.79

Q: Which protein stability index does the source give for L22T here?
A: 4.49

Q: For L22I, which protein stability index is on record?
A: 4.2

Q: Which protein stability index does the source give for L22P here?
A: 4.28

Q: For R13Y, which protein stability index is on record?
A: 4.37

Q: With R13L as the variant, how does the protein stability index read?
A: 4.44

Q: For R13E, which protein stability index is on record?
A: 5.14

Q: For R13N, which protein stability index is on record?
A: 4.83

Q: For R13H, which protein stability index is on record?
A: 5.06

Q: With R13S as the variant, how does the protein stability index read?
A: 4.91

Q: For R13Q, which protein stability index is on record?
A: 4.75

Q: With R13V as the variant, how does the protein stability index read?
A: 4.67

Q: For R13M, which protein stability index is on record?
A: 4.64

Q: For R13G, which protein stability index is on record?
A: 5.06

Q: Which protein stability index does the source give for K23Y here?
A: 4.38

Q: Which protein stability index does the source give for K23S here?
A: 4.56

Q: Which protein stability index does the source give for K23T here?
A: 4.67

Q: Which protein stability index does the source give for K23F here?
A: 3.48

Q: For K23D, which protein stability index is on record?
A: 4.79

Q: For D6S, which protein stability index is on record?
A: 4.55

Q: With D6H as the variant, how does the protein stability index read?
A: 4.49

Q: Which protein stability index does the source give for D6Y here?
A: 3.79

Q: Which protein stability index does the source give for D6G here?
A: 4.44

Q: With D6Q as the variant, how does the protein stability index read?
A: 4.46

Q: Which protein stability index does the source give for D6F here?
A: 3.83

Q: For D6W, which protein stability index is on record?
A: 3.27

Q: For D6P, which protein stability index is on record?
A: 3.81

Q: For K4T, which protein stability index is on record?
A: 4.82

Q: With K4L as the variant, how does the protein stability index read?
A: 4.61

Q: Which protein stability index does the source give for K4F here?
A: 4.42

Q: With K4Y as the variant, how does the protein stability index read?
A: 4.42

Q: With K4A as the variant, how does the protein stability index read?
A: 4.43

Q: With K4R as the variant, how does the protein stability index read?
A: 4.54

Q: For K4I, which protein stability index is on record?
A: 4.29

Q: Which protein stability index does the source give for K4V here?
A: 4.19

Q: With K4D as the variant, how does the protein stability index read?
A: 4.72

Q: For E14R, which protein stability index is on record?
A: 4.14

Q: For E14S, which protein stability index is on record?
A: 4.45

Q: Which protein stability index does the source give for E14G here?
A: 4.4

Q: With E14M as the variant, how does the protein stability index read?
A: 3.88

Q: Which protein stability index does the source give for E14H here?
A: 4.49

Q: For E14W, which protein stability index is on record?
A: 3.87

Q: Which protein stability index does the source give for P24Q here?
A: 4.47

Q: Which protein stability index does the source give for P24D here?
A: 3.69

Q: Which protein stability index does the source give for P24A here?
A: 4.74

Q: Which protein stability index does the source give for P24T here?
A: 4.88

Q: For P24E, which protein stability index is on record?
A: 4.74

Q: With P24R as the variant, how does the protein stability index read?
A: 4.13

Q: For P24C, which protein stability index is on record?
A: 4.44

Q: For P24M, which protein stability index is on record?
A: 4.06

Q: For P24I, which protein stability index is on record?
A: 3.32

Q: Which protein stability index does the source give for P24F here?
A: 3.56

Q: For R1S, which protein stability index is on record?
A: 4.47

Q: With R1C as the variant, how does the protein stability index read?
A: 4.88

Q: With R1F as the variant, how does the protein stability index read?
A: 4.29

Q: With R1E as the variant, how does the protein stability index read?
A: 4.31

Q: Which protein stability index does the source give for R1W here?
A: 4.45

Q: With R1L as the variant, how does the protein stability index read?
A: 4.62

— the supplement of paper PMC10567573
